Read-outs that look alike come from different tables or passages of the source.

The values that follow come from patent publication US6491908.

What all share (assay): cell-based or functional assay
In assay [1] the target is CD3 portion of the T cell receptor on Jurkat cells (human) (UniProt P07766).
Assay [2] has the same target. The source holds these as a separate data set.
For assay [3], the target named is D^d/zeta chimera (mouse class I MHC D^d fused to the murine T cell receptor zeta chain) (mouse) (UniProt P24161).
Assay [4] addresses mouse class I MHC D^d (full length, without signaling molecule) (mouse) (UniProt P01900).
Assay [5] concerns the target D^d/zeta chimera (mouse class I MHC D^d fused to the murine T cell receptor zeta chain) (mouse) (UniProt P24161). This is another data set of the same source.
The target in assay [6] is mouse class I MHC D^d (full length, without signaling molecule) (mouse) (UniProt P01900). The source holds these as a separate data set.
Sequence of mouse class I MHC D^d (full length, without signaling molecule) (mouse) (P01900 25-365): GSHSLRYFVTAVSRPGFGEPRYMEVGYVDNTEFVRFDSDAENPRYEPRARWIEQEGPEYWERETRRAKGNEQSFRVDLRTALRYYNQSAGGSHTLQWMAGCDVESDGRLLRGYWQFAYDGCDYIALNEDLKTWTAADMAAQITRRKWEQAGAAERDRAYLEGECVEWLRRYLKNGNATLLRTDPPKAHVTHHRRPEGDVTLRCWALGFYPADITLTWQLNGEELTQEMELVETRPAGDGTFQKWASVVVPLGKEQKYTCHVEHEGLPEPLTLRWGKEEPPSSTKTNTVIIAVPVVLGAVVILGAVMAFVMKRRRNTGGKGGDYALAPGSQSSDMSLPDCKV

Sequence of CD3 portion of the T cell receptor on Jurkat cells (human) (P07766 23-207): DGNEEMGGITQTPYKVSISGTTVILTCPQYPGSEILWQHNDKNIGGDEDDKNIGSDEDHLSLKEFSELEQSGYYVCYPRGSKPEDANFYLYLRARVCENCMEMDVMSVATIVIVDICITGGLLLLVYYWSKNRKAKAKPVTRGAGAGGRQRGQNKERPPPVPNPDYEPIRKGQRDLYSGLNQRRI

In assay [1], OKT3, an anti-CD3 antibody displayed a Proliferation (CPM) of CTLL-2 cells (IL-2 in supernatant of untransfected Jurkat cells), with PMA of 2200 CPM and a Proliferation (CPM) of CTLL-2 cells (IL-2 in supernatant of untransfected Jurkat cells), without PMA of 1180 CPM. In assay [2], the Proliferation (CPM) of CTLL-2 cells (IL-2 in supernatant of #19 (D^d) Jurkat cells), with PMA was 10900 CPM and the Proliferation (CPM) of CTLL-2 cells (IL-2 in supernatant of #19 (D^d) Jurkat cells), without PMA stood at 9530 CPM.
As to anti-D^d monoclonal antibody (34-2-12), in assay [3], the Proliferation (CPM) of CTLL-2 cells (IL-2 in supernatant of J11-6 (D^d/zeta) Jurkat cells), with PMA turned out to be 26800 CPM; the Proliferation (CPM) of CTLL-2 cells (IL-2 in supernatant of J11-6 (D^d/zeta) Jurkat cells), without PMA is 338 CPM; the cellular proliferation ([3H]TdR) of spleen lymphoid cells of D^d/zeta transgenic mice, anti-D^d + anti-CD8 + anti-CD3 mAbs together was 253000; the cellular proliferation ([3H]TdR) of spleen lymphoid cells of D^d/zeta transgenic mice, anti-D^d + anti-CD8 mAbs together is 242000. In assay [3], the cellular proliferation ([3H]TdR) of spleen lymphoid cells of D^d/zeta transgenic mice, anti-D^d mAb alone was 303000 and the fold enhancement of proliferation over the D^d alone expressing cells lay in the range of 10 to 300 fold. In assay [4], the cellular proliferation ([3H]TdR) of spleen lymphoid cells of pD^d1 (D^d) transgenic mice, anti-D^d + anti-CD8 + anti-CD3 mAbs together was determined as 25000; the cellular proliferation ([3H]TdR) of spleen lymphoid cells of pD^d1 (D^d) transgenic mice, anti-D^d + anti-CD8 mAbs together amounted to 1240; the cellular proliferation ([3H]TdR) of spleen lymphoid cells of pD^d1 (D^d) transgenic mice, anti-D^d mAb alone was found to be 897. In assay [5], the Proliferation (CPM) of CTLL-2 cells (IL-2 in supernatant of J11-6 (D^d/zeta) Jurkat cells), with PMA worked out at 16700 CPM and the Proliferation (CPM) of CTLL-2 cells (IL-2 in supernatant of J11-6 (D^d/zeta) Jurkat cells), without PMA was found to be 361 CPM. In assay [6], this substance came in with a Proliferation (CPM) of CTLL-2 cells (IL-2 in supernatant of #19 (D^d) Jurkat cells), with PMA of 5520 CPM and a Proliferation (CPM) of CTLL-2 cells (IL-2 in supernatant of #19 (D^d) Jurkat cells), without PMA of 492 CPM.
